How the values were obtained:
[1] = melting temperature (ThermoFMN); higher = more thermostable
Method: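 Purified His-tagged ene reductases (1 mg/ml) in 50 mM sodium phosphate pH 7.4 with 0-30% (v/v) organic co-solvent. Melting temperature was measured by the ThermoFMN assay (FMN fluorescence, 20-90 °C at 1 °C/min, inflection point, triplicate). Specific initial activity was measured with 10 mM cyclohex-2-enone and 0.2 mM NAD(P)H (NADH for LacER) as A340 depletion, at room temperature (DMSO, 2-propanol, n-propanol) or 25 °C (EtOH, MeOH), in triplicate. The TsOYE Tm is above the 90 °C measurement range.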

[2] = specific initial activity, cyclohex-2-enone reduction (U mg-1); higher = more active
Method: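 Purified His-tagged ene reductases in 50 mM sodium phosphate pH 7.4 with 0-30% (v/v) organic co-solvent. Melting temperature was measured by the ThermoFMN assay (FMN fluorescence, 20-90 °C at 1 °C/min, inflection point, triplicate). Specific initial activity was measured with 10 mM cyclohex-2-enone and 0.2 mM NAD(P)H (NADH for LacER) as A340 depletion, at room temperature (DMSO, 2-propanol, n-propanol) or 25 °C (EtOH, MeOH), in triplicate. The TsOYE Tm is above the 90 °C measurement range.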

MARKLFTPITIKDMTLKNRIVMSPMCMYSSHEKDGKLTPFHMAHYISRAIGQVGLIIVEASAVNPQGRITDQDLGIWSDEHIEGFAKLTEQVKEQGSKIGIQLAHAGRKAELEGDIFAPSAIAFDEQSATPVEMSAEKVKETVQEFKQAAARAKEAGFDVIEIHAAHGYLIHEFLSPLSNHRTDEYGGSPENRYRFLREIIDEVKQVWDGPLFVRVSASDYTDKGLDIADHIGFAKWMKEQGVDLIDCSSGALVHADINVFPGYQVSFAEKIREQADMATGAVGMITDGSMAEEILQNGRADLIFIGRELLRDPFFARTAAKQLNTEIPAPVQYERGW
Conditions | melting temperature, co-solvent: 2-propanol [°C] | melting temperature, co-solvent: dimethyl sulfoxide [°C] | melting temperature, co-solvent: ethanol [°C] | melting temperature, co-solvent: methanol [°C] | melting temperature, co-solvent: n-propanol [°C] | specific initial activity, co-solvent: 2-propanol | specific initial activity, co-solvent: dimethyl sulfoxide | specific initial activity, co-solvent: ethanol | specific initial activity, co-solvent: methanol | specific initial activity, co-solvent: n-propanol
[1], co-solvent concentration (% v/v): 0 | 50.7 | 51 | 51 | 51 | 51 | – | – | – | – | –
[1], co-solvent concentration (% v/v): 5 | 40 | 49.3 | 45 | 48.3 | 43.3 | – | – | – | – | –
[1], co-solvent concentration (% v/v): 10 | 36.3 | 48 | 42.3 | 43.3 | 35.3 | – | – | – | – | –
[1], co-solvent concentration (% v/v): 15 | 34 | 46.7 | 38.3 | 40 | 29.7 | – | – | – | – | –
[1], co-solvent concentration (% v/v): 20 | 31.3 | 46 | 35 | 39.3 | 28.3 | – | – | – | – | –
[1], co-solvent concentration (% v/v): 25 | 27.3 | 45 | 33 | 36.7 | 27.7 | – | – | – | – | –
[1], co-solvent concentration (% v/v): 30 | 24.3 | 44 | 31 | 33 | 26.7 | – | – | – | – | –
[2], co-solvent concentration (% v/v): 0 | – | – | – | – | – | 0.49 | 0.52 | 0.46 | 0.51 | 0.5
[2], co-solvent concentration (% v/v): 5 | – | – | – | – | – | 0.34 | 0.4 | 0.33 | 0.39 | 0.25
[2], co-solvent concentration (% v/v): 10 | – | – | – | – | – | 0.21 | 0.33 | 0.21 | 0.3 | 0.17
[2], co-solvent concentration (% v/v): 15 | – | – | – | – | – | 0.16 | 0.25 | 0.07 | 0.13 | 0.12
[2], co-solvent concentration (% v/v): 20 | – | – | – | – | – | 0.11 | 0.17 | 0.03 | 0.12 | 0.05
[2], co-solvent concentration (% v/v): 25 | – | – | – | – | – | 0.14 | 0.1 | 0.03 | 0.07 | 0
[2], co-solvent concentration (% v/v): 30 | – | – | – | – | – | 0.06 | 0.05 | 0.02 | 0.05 | 0

— the supplement of paper PMC11208486
